Experimental data: PMC4857094

Target: circularly permutated RBD of PKN1 (PKN1-WT) in the RhoA/B/C FRET sensors
Experiment: FRET or BRET; intramolecular single-chain sensor (PKN1 RBD, mVenus, Cerulean3, RhoGTPase); normalized mean YFP/CFP ratio change of whole live HUVEC after Thrombin (1 U/ml) at t = 110 sec

Point of comparison: “RhoC-WT in the RhoC FRET sensor (from UniProt P08134 1-193) (natural protein)”, mean maximal FRET ratio change after Thrombin 42%. Against it:
- RhoA-WT in the RhoA FRET sensor (from UniProt P61586 1-193) (natural protein) — lower, 32%
- RhoB-WT in the RhoB FRET sensor (from UniProt P62745 1-196) (natural protein) — higher, 122%

Target: circularly permutated RBD of PKN1 (PKN1-WT) in the RhoA/B/C FRET sensors
Experiment: FRET or BRET; intramolecular single-chain sensor (PKN1 RBD, mVenus, Cerulean3, RhoGTPase); average basal YFP/CFP ratio in resting live primary human EC (HUVEC), 18 hours after microporation

Point of comparison: “RhoC-G14V in the RhoC FRET sensor (from UniProt P08134 1-193) (natural protein)”, basal YFP/CFP ratio 6.2. Against it:
- RhoA-Q63L in the RhoA FRET sensor (from UniProt P61586 1-193) (natural protein) — higher, 8.1
- RhoB-G14V in the RhoB FRET sensor (from UniProt P62745 1-196) (natural protein) — higher, 6.5
- RhoC-Q63L in the RhoC FRET sensor (from UniProt P08134 1-193) (natural protein) — higher, 6.8
